In patent US20150056219A1 (published 2015):
Substitutions are numbered along the chain they refer to.

B1: hHVEM (receptor)
chain: LPSCKEDEYPVGSECCPKCSPGYRVKEACGELTGTVCEPCPPGTYIAHLNGLSKCLQCQMCDPAMGLRASRNCSRTENAVCGCSPGHFCIVQDGDHCAACRAYATSSPGQRVQKGGTESQDTLCQNCPPGTFSPNGTLEECQHQTKCSWLVTKAGAGTSSSHWV
B2: hLTbR (receptor)
chain: QAVPPYASENQTCRDQEKEYYEPQHRICCSRCPPGTYVSAKCSRIRDTVCATCAENSYNEHWNYLTICQLCRPCDPVMGLEEIAPCTSKRKTQCRCQPGMFCAAWALECTHCELLSDCPPGTEAELKDEVGKGNNHCVPCKAGHFQNTSSPSARCQPHTRCENQGLVEAAPGTAQSDTTCKNPLEPLPPEMSGTMLM
B3: mLTbR (receptor)
chain: QLVPPYRIENQTCWDQDKEYYEPMHDVCCSRCPPGEFVFAVCSRSQDTVCKTCPHNSYNEHWNHLSTCQLCRPCDIVLGFEEVAPCTSDRKAECRCQPGMSCVYLDNECVHCEEERLVLCQPGTEAEVTDEIMDTDVNCVPCKPGHFQNTSSPRARCQPHTRCEIQGLVEAAPGTSYSDTICKNPPEPGAMLL
B4: mHVEM (receptor)
chain: QPSCRQEEFLVGDECCPMCNPGYHVKQVCSEHTGTVCAPCPPQTYTAHANGLSKCLPCGVCDPDMGLLTWQECSSWKDTVCRCIPGYFCENQDGSHCSTCLQHTTCPPGQRVEKRGTHDQDTVCADCLTGTFSLGGTQEECLPWTNCSAFQQEVRRGTNSTDTTCSSQ
B5: wt (ligand)
chain: LIQERRSHEVNPAAHLTGANSSLTGSGGPLLWETQLGLAFLRGLSYHDGALVVTKAGYYYIYSKVQLGGVGCPLGLASTITHGLYKRTPRYPEELELLVSQQSPCGRATSSSRVWWDSSFLGGVVHLEAGEKVVVRVLDERLVRLRDGTRSYFGAFMV
B6: m4-16 (protein)
chain: RRSHEVNPAAHLTGANFSLTGSGGPLLWETQLGQAFLRGLSYHDGALVVTKAGYYYIYSKVQLGGVGCPLGLASTITHGLYKRTPRYPEELELLVSQQSPCGRATSSSRVWWDSSFLGGVVHLEAGEEVVVRVLDDRLVRLRDGTRSYFGAFMV
B7: m4-7 (protein)
chain: B6 chain with F17S, L19S, Q34L, G64R, D136E
B8: m4-14 (protein)
chain: B6 chain with F17S, Q34L, R38S, G64R, D135G, D136E
B9: wild type human LIGHT (ligand)
chain: B5 chain

Each binder was assayed against m4-52.
In the case of B1, the Kd is reported as 1.42 nM. In the case of B2, the Kd is reported as 1.12 nM. In the case of B3, the Kd is reported as 0.68 nM. B4 showed a Kd of 2.44 nM.

Each binder was assayed against DcR3.
B5 showed a Kd of 0.6 nM.

The binders below were run against mouse LTβR (mouse, UniProt P50284 31-223).
Work on B6 yielded a Kd of 0.192 nM. B7 gave a Kd of 0.118 nM. With B8 the Kd was 0.094 nM.

Biological target: T1, human HVEM (human, UniProt Q92956 39-202)
T1 chain: B1 chain
Work on B6 yielded a Kd of 2.24 nM. In the case of B7, the Kd is reported as 0.92 nM. For B8, the Kd was 38.5 nM.

Biological target: T2, mouse HVEM (mouse, UniProt Q80WM9 39-206)
T2 chain: B4 chain
B6 showed a Kd of 2.22 nM. B7 was tested, and the Kd was 5.03 nM. Work on B8 yielded a Kd of 0.29 nM.

What follows are binders tested against human LTβR (human, UniProt P36941 31-227).
For B9, the Kd was 1.3 nM. Binder B6 has a Kd of 0.13 nM. B7 was tested, and the Kd was 0.157 nM. B8 gave a Kd of 0.16 nM.
